{"source": "paper PMC9519457", "about": "(Nature Microbiology, 2022)", "binders": {"B1": {"name": "R1-32 (antibody, V domains shown)", "VH": "EVQLVESGAEVKKPGSSVKVSCKASGGTFSSYAISWVRQAPGQGLEWMGGIIPILGIANYAQKFQGRVTITADKSTSTAYMELSSLRSEDTAVYYCARENGYSGYGAAANFDLWGRGTLVTVSS", "VL": "QSVLTQPPSVSGAPGQRVTISCTGSSSNIGAGYDVHWYQQLPGTAPKLLIYGNSNRPSGVPDRFSGSKSGTSASLAITGLQAEDEADYYCQSYDSSLSGSVFGGGTKLTVL", "notes": "human IgG1"}, "B2": {"name": "FC08 (antibody, V domains shown)", "VH": "QLLQQSGAEVKKPGSSVKVSCKASGGTFSSYAISWVRQAPGQGLEWMGGIIPIIGIANYAQKFQGRVTITADKSTSTAYMELSSLRSEDTAVYYCARERGYSGYGAAYYFDYWGQGTLVTVSS", "VL": "SVLTQPPSVSGAPGQRVTISCTGSSSNIGAGYDVHWYQQLPGTAPKLLIYGNSNRPSGVPDRFSGSKSGTSASLAITGLQAEDEADYYCQSYDSSLSGSVFGGGTKLTVL"}, "B3": {"name": "C963 (antibody, V domains shown)", "VH": "QVQLVQSGAEVKKPGSSVRVSCKASGGTFSSFTITWVRQAPGQGLEWMGRIIPNLNIPNYAQRFQGRITITAEKSTSTAYLELSSLRSEDTAVYYCARGVGYSGSGSNWYFDLWGRGTLVTVSS", "VL": "QSVLTQPPSVSGAPGQRVTISCTGSSSNIGAGYDVHWYQQLPGTAPKLLISGHINRPSGVPDRFSGSTSGTSASLAITGLQAEDEADYYCQSYDSSLSDSVFGGGTKLTV", "notes": "human IgG1"}, "B4": {"name": "C978 (antibody, V domains shown)", "VH": "QVQLVQSGAEVKKPGSSVKVSCKASGATFSNYIISWVRQAPGQGLEWMGRTIPLLDIANYAQKFQGRVTITADKSTRIVYMHLGSLTSEDTAVYYCATGKGYSSSSAAYYFDHWGQGTLVTVSS", "VL": "QSVLTQPPSVSGAPGQRVTISCTGTNSNIGAGYDIHWYQQLPGTAPKLLIYGSNNRPSGVPDRFSGSKSGTSASLAITGLQAEDEADYYCQSYDSSLSGSEVFGGGTKLTVL", "notes": "human IgG1"}, "B5": {"name": "C941 (antibody, V domains shown)", "VH": "QVQLVQSGAEVKKPGSSVKVSCKASGGTSRSYPISWVRQAPGQGLEWMGRIIPIVGTANYAQRFQGRVTITADESTGTAYMELSSLRSEDTAVYYCARNRGYSDYGSVYYFDYWGQGTLVTVSS", "VL": "QSVLTQPPSVSGAPGQRVTISCTGSSSNIGAGYDVHWYQQLPGAAPKLLIYRNINRPSGVPDRFSGSKSGTSASLAITGLQADDEADYYCQSYDSSLSGSVFGGGTKLTV", "notes": "human IgG1"}, "B6": {"name": "C091 (antibody, V domains shown)", "VH": "QVQLVQSGAEVKKPGSSVKVSCKASGGTFSSYTISWVRQAPGQGLEWMGRIIPILGIANYAQKFQGRVTITADKSTSTAYMELSSLRSEDTAVYYCARDSGYSGYGSTYYMDVWGKGTTVTVSS", "VL": "QSVLTQPPSVSGAPGQRVTISCTGSSSNIGAGYDVHWYQQLPGTAPKLLIYGNSNRPSGVPDRFSGSKSGTSASLAITGLQAEDEADYYCQSYDSSLSGSVFGTVTKVTVL", "notes": "human IgG1"}, "B7": {"name": "C092 (antibody, V domains shown)", "VH": "QVQLVQSGAEVKKPGSSVKVSCKASGGSFTNHFISWVRQAPGQGLEWMGRIIPILGTANYAQNFQGRVMMTADKSTSTAYMELSSLRSEDTAVYYCARDSGYSGYGSTYYMDVWGKGTTVTVSS", "VL": "QSVLTQPPSVSGAPGQRVTISCTGSNSNIGAGYDVHWYQQLPGAAPKLLIYGNNNRPSGVPDRFSGSKSDTSASLAITGLQVEDEADYYCQSYDSSLSDSVFGSGTKVTVL", "notes": "human IgG1"}, "B8": {"name": "C807 (antibody, V domains shown)", "VH": "QVQLVQSGAEAKKPGSSVKVSCKASGGTFKSYIINWVRQAPGQGLEWMGEIIPIFGTANYAQKFQGRVTSTADESTSTAYMELSSLKSEDTAVYYCARGRGYSGYGASYYFDYWGQGTLVTVSS", "VL": "QSVLTQPPSVSGAPGQRVTISCTGSNSNIGAGYDVHWYQQLPGTAPKLLIYANSNRPSGVPDRFSGSKSGTSASLAITGLQAEDEADYYCQSYDSGLSGSVFGGGTKLTVL", "notes": "human IgG1"}, "B9": {"name": "C832 (antibody, V domains shown)", "VH": "QVQLVQSGAEVKKPGSSVKVSCKASGGTFSSYSISWVRQAPGQGLEWMGRIIPILGIASYAQKFQGRVTITADKSTSTVYMELTGLRSDDTAVYYCARDRGYSDYGSHYYMDVWGKGTTVTVSS", "VL": "QSVLTQPPSVSGAPGQRVTISCTGSSSNIGAGYDVHWYQQLPGTAPKLLIYINSNRPSGVPDRFSGSKSGTSASLAITGLQAEDEADYYCQSYDSSLSDSVFGGGTKLTVL", "notes": "human IgG1"}, "B10": {"name": "R1-32 (human IgG1 monoclonal antibody) (antibody, V domains shown)", "VH": "EVQLVESGAEVKKPGSSVKVSCKASGGTFSSYAISWVRQAPGQGLEWMGGIIPILGIANYAQKFQGRVTITADKSTSTAYMELSSLRSEDTAVYYCARENGYSGYGAAANFDLWGRGTLVTVSS", "VL": "QSVLTQPPSVSGAPGQRVTISCTGSSSNIGAGYDVHWYQQLPGTAPKLLIYGNSNRPSGVPDRFSGSKSGTSASLAITGLQAEDEADYYCQSYDSSLSGSVFGGGTKLTVL"}}, "experiment_in_all_cases": "BLI", "settings_in_all_cases": "both partners purified", "key": {"SARS-CoV-2 wild-type RBD [1]": {"molecular_target": "T1, SARS-CoV-2 wild-type RBD (SARS-CoV-2 wild type)"}, "SARS-CoV-2 wild-type RBD [2]": {"molecular_target": "T1, SARS-CoV-2 wild-type RBD", "remark": "listed apart in the source"}, "SARS-CoV-2 wild-type RBD [3]": {"molecular_target": "T1, SARS-CoV-2 wild-type RBD", "remark": "listed apart in the source"}, "SARS-CoV-2 wild-type RBD [4]": {"molecular_target": "T1, SARS-CoV-2 wild-type RBD", "remark": "listed apart in the source"}, "[5]": {"molecular_target": "SARS-CoV-2 RBD (residues 319-541), wild type (SARS-CoV-2, wild type, UniProt P0DTC2)"}}}
{"binder": "B1", "values": [{"measurement": "Kd", "setting": "SARS-CoV-2 wild-type RBD [1]", "result": 2.8, "unit": "nM"}, {"measurement": "koff", "setting": "SARS-CoV-2 wild-type RBD [1]", "result": 0.00149, "unit": "s⁻¹"}, {"measurement": "kon", "setting": "SARS-CoV-2 wild-type RBD [1]", "result": 533000, "unit": "M⁻¹ s⁻¹"}, {"measurement": "koff", "setting": "SARS-CoV-2 wild-type RBD [2]", "result": 0.000376, "unit": "s⁻¹"}, {"measurement": "kon", "setting": "SARS-CoV-2 wild-type RBD [2]", "result": 472000, "unit": "M⁻¹ s⁻¹"}]}
{"binder": "B2", "values": [{"measurement": "Kd", "setting": "SARS-CoV-2 wild-type RBD [3]", "result": 0.35, "unit": "nM"}, {"measurement": "koff", "setting": "SARS-CoV-2 wild-type RBD [3]", "result": 0.00028, "unit": "s⁻¹"}, {"measurement": "kon", "setting": "SARS-CoV-2 wild-type RBD [3]", "result": 797000, "unit": "M⁻¹ s⁻¹"}]}
{"binder": "B3", "values": [{"measurement": "Kd", "setting": "SARS-CoV-2 wild-type RBD [4]", "result": 0.84, "unit": "nM"}, {"measurement": "koff", "setting": "SARS-CoV-2 wild-type RBD [4]", "result": 0.000593, "unit": "s⁻¹"}, {"measurement": "kon", "setting": "SARS-CoV-2 wild-type RBD [4]", "result": 709000, "unit": "M⁻¹ s⁻¹"}]}
{"binder": "B4", "values": [{"measurement": "Kd", "setting": "SARS-CoV-2 wild-type RBD [4]", "result": 0.99, "unit": "nM"}, {"measurement": "koff", "setting": "SARS-CoV-2 wild-type RBD [4]", "result": 0.000524, "unit": "s⁻¹"}, {"measurement": "kon", "setting": "SARS-CoV-2 wild-type RBD [4]", "result": 531000, "unit": "M⁻¹ s⁻¹"}]}
{"binder": "B5", "values": [{"measurement": "Kd", "setting": "SARS-CoV-2 wild-type RBD [4]", "result": 0.77, "unit": "nM"}, {"measurement": "koff", "setting": "SARS-CoV-2 wild-type RBD [4]", "result": 0.000117, "unit": "s⁻¹"}, {"measurement": "kon", "setting": "SARS-CoV-2 wild-type RBD [4]", "result": 153000, "unit": "M⁻¹ s⁻¹"}]}
{"binder": "B6", "values": [{"measurement": "Kd", "setting": "SARS-CoV-2 wild-type RBD [4]", "result": 9.75, "unit": "nM"}, {"measurement": "koff", "setting": "SARS-CoV-2 wild-type RBD [4]", "result": 0.00337, "unit": "s⁻¹"}, {"measurement": "kon", "setting": "SARS-CoV-2 wild-type RBD [4]", "result": 346000, "unit": "M⁻¹ s⁻¹"}]}
{"binder": "B7", "values": [{"measurement": "Kd", "setting": "SARS-CoV-2 wild-type RBD [4]", "result": 0.16, "unit": "nM"}, {"measurement": "koff", "setting": "SARS-CoV-2 wild-type RBD [4]", "result": 0.000103, "unit": "s⁻¹"}, {"measurement": "kon", "setting": "SARS-CoV-2 wild-type RBD [4]", "result": 642000, "unit": "M⁻¹ s⁻¹"}]}
{"binder": "B8", "values": [{"measurement": "Kd", "setting": "SARS-CoV-2 wild-type RBD [4]", "result": 0.79, "unit": "nM"}, {"measurement": "koff", "setting": "SARS-CoV-2 wild-type RBD [4]", "result": 0.000431, "unit": "s⁻¹"}, {"measurement": "kon", "setting": "SARS-CoV-2 wild-type RBD [4]", "result": 547000, "unit": "M⁻¹ s⁻¹"}]}
{"binder": "B9", "values": [{"measurement": "Kd", "setting": "SARS-CoV-2 wild-type RBD [4]", "result": 0.63, "unit": "nM"}, {"measurement": "koff", "setting": "SARS-CoV-2 wild-type RBD [4]", "result": 0.000246, "unit": "s⁻¹"}, {"measurement": "kon", "setting": "SARS-CoV-2 wild-type RBD [4]", "result": 387000, "unit": "M⁻¹ s⁻¹"}]}
{"binder": "B10", "values": [{"measurement": "Kd", "setting": "[5]", "result": 0.8, "unit": "nM"}]}
